The values below come from patent US6093692A, “Method and compositions for lipidization of hydrophilic molecules” (The University of Southern California, priority 1997, dated 2000).

The subject of one data set is Caco-2 cells. It is filed as cell-based, Human. On the procedure:
Human colon carcinoma cells (Caco-2) were detached from 25 cm^2 stock culture flasks using a 10 min incubation at 37° C. with 0.5 ml of a trypsin/EDTA solution (0.5% trypsin, 5.3 mM EDTA). The cells were then suspended in 5 ml of Dulbecco's minimum essential medium, supplemented with 15% fetal bovine serum (FBS), L-glutamine (1%), and essential amino acids (1%), and counted using a coulter counter.
Radioiodination of BBI and BBIssPal was carried out using the chloramine-T method [McConahey, P. C. and Dixon, F. J., Meth. Enzymol., 70:221-247 (1980)]. Confluent, 14-day old cell monolayers were washed once with, and then incubated in, serum-free Dulbecco medium at 37° C. for 30 min. Subsequently, the incubation medium was replaced with serum free medium containing ^125 I-BBI (10 μg/ml), either as native-BBI or as BBIssPal or BBIssOleic, and the monolayers were incubated for a further 60 min at 37° C. The monolayers were then washed three times with ice-cold PBS, and then exposed to trypsin (0.5%, EDTA 5.3 mM) for 10 min at 37° C. The detached cells were transferred to tubes, isolated by centrifugation, washed three times using ice-cold PBS, assayed for accumulated radioactivity using a gamma counter, and finally assayed for cell protein using the published method [Lowry, O. H., et al., J. Biol. Chem., 193:265-275 (1951)].
In some experiments the uptake of reduced ^125 I-BBIssPal into cells was determined. ^125 I-BBIssPal was reduced with DTT (50 mM) at 60° C. for 5 min followed by a further 25 min at 37° C. In control experiments, ^125 I-BBIssPal was exposed in medium to the same temperatures without being exposed to DTT.
The uptake of ^125 I-BBIssPal in the presence of BSA (fatty acid free) was determined as follows. ^125 I-BBIssPal was incubated with medium containing 0.1% BSA for 30 min at 37° C. before being added to the cell monolayers. In some uptake experiments, BSA was first mixed with a 3-fold molar excess of palmitic acid, and then incubated with the conjugates prior to the experiments. In the experiments where the uptake of ^125 I-BBIssPal was determined in medium containing FBS, the conjugates was simply added to the medium containing the required amount of FBS.
The cell monolayers were incubated with ^125 I-labeled conjugates at 10 μg/ml for 60 min at 37° C. The results presented are the average of three monolayers ±SEM. The uptake experiments were carried out in Dulbecco medium, in the presence and absence of added FBS.
The cell uptake of ^125 I-BBI, either as the native protein or as BBIssPal was determined before and after reduction with DTT (50 mM) for 5 min at 60° C. and 25 min at 37° C.
The uptake experiments were carried out in Dulbecco medium, in the presence and absence of added fatty acid-free BSA (BSA) or fatty acid-loaded BSA (BSA/FA). The results of studies of the uptake of ^125 I-BBI, either as the native-BBI or in conjugated form to palmitic or oleic acid, in Caco-2 cells in the presence of serum-free medium are presented in FIG. 1. The results are shown as the average ng of BBI internalized ±SEM, n=3. The uptake of ^125 I-BBIssPal into the cells was approximately 100-fold higher than that of ^125 I-BBI. […] The difference between the uptake of ^125 I-BBIssPal and ^125 I-BBIssOleic were significant.

On the set-up of data set [1]: species or system CF-1 mice. The settings on record: mouse, in vivo, iv, 3 mg/kg. Here is the method:
Female CF-1 mice, […], weighing 20-25 g each, with free access to food and water prior to the experiments, were used for the animal experiments. ^125 I-BBI (3 mg/kg), as native-BBI or as BBIssPal or BBIssOleic conjugate, was administered to the animals via the tail vein. At 0.5, 3, and 24 hr post-injection, 3 animals from each experiment group were sacrificed and their blood (200 μl), the kidneys, the lungs, and the liver were removed, rinsed in ice-cold PBS, and assayed for accumulated radioactivity. The weights of the organs were recorded and used to adjust the concentration of the conjugates in the organs.

The next data set has as its system C3H 10T1/2 cells. Put plainly: Plating efficiency. In kind it is cell-based. Here is the method: The plating efficiency (PE) of the cells was also studied in conjunction with each of the transformation assays. To determine the PE of the cells in the different treatment groups, cells (200 cells/dish) were seeded into three 60-mm petri dishes per experiment group and treated in the identical manner as the transformation assay cells. The cells in these assays were terminated at 10 days, fixed with 100% methanol, and stained with giemsa; the colonies of 50 cells or more visible under a microscope were then counted. The plating efficiency is defined as the (number of colonies/number of cells seeded)×100%.

B1: BBIssPal: the palmityl disulfide conjugate of BBI (conjugate, UniProt P01055 40-110, looked up)
Bowman-Birk type proteinase …: DDESSKPCCDQCACTKSNPPQCRCSDMRLNSCHSACKSCICALSYPAQCFCVDITDFCYEPCKPSEDDKEN
modifications: palmityl disulfide; 125I
notes: the palmityl disulfide conjugate of BBI
Take B1: in the data set with Caco-2 cells, the “Internalization, fold over that of BBI” value is reported as 35 fold; the “Reduction of uptake after reduction with DTT” value is given as “approximately 80%”; the “Reduction of uptake by defatted-BSA” value is 82%; the “Uptake, fold higher than native-BBI” value was 10 fold. Besides, in data set [1], the “Blood levels and removal from circulation” value was “accumulated in the blood at a relatively high level”; the “Kidney accumulation” value is “BBIssPal was not”; the “Kidney clearance, fold lower than native-BBI” value is “about 4 fold”; the “Liver accumulation, fold higher than BBI” value is “approximately 5 fold”. Also, in data set [1], the “Lung accumulation/levels, fold higher than BBI” value is on record as “approximately 2 fold” and the “Retention in the liver” value is “remained high in the liver even at 24 hr post-injection”. In the data set with C3H 10T1/2 cells, the “Plating Efficiency” value amounted to 23 ± 3.0%.
